Measurements from patent US6322962A, “Sterol-regulated Site-1 protease and assays of modulators thereof” (Board of Regents, The University of Texas System, priority 1999, dated 2001).
Residue numbers refer to the chain shown, from its start. Names may count otherwise. “Also recorded” adds a separate entry of the source. Peptide text beside a SMILES is read from it. * marks the point of attachment. AMC = Cc1cc(=O)oc2cc(N*)ccc12

What was measured:
SKI-1 = conditions: Seidah et al., 1999, preliminary data; cited from earlier work
purified S1P(983)-C = target: T1, purified S1P(983)-C (Cricetulus griseus, UniProt Q9Z2A8, T875N); assay: Fluorogenic peptide assay for S1P activity (cleavage of MCA-conjugated peptides); type: biochemical, hamster
T1 construct: Truncated S1P (amino acids 1-983); GGR linker (NotI site); made in house; host or cells: SRD-12B cells (mutant CHO cells lacking S1P) stably transfected with pCMV-S1P(983)-Myc-His (TR-3117, 'S1P(983) cells'); secreted into the medium and purified on Ni-NTA
T1 sequence (Q9Z2A8 187-983 T875N): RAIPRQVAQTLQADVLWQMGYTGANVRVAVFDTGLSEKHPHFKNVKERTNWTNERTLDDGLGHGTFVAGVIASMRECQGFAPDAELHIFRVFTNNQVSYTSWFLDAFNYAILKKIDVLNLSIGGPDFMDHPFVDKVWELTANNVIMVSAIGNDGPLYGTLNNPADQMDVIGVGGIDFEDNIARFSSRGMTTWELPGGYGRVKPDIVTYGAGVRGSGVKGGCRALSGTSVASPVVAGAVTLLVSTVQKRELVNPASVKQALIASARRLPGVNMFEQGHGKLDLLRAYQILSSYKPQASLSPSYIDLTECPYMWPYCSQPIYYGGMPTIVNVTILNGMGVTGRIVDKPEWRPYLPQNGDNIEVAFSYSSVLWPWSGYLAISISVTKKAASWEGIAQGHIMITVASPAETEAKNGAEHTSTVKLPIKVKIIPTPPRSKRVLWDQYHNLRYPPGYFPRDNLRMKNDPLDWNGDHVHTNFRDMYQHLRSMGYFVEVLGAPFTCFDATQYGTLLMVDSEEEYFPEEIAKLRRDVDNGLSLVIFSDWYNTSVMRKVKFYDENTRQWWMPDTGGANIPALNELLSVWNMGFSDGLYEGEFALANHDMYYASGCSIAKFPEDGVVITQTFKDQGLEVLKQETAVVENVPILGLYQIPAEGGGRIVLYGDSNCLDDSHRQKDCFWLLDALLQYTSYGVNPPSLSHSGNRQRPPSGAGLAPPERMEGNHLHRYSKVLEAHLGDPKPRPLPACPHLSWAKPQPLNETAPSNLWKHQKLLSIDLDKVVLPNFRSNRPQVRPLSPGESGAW
Procedure: Fluorogenic Peptide Assay for S1P Activity
S1P activity was measured fluorometrically with MCA-conjugated peptidyl substrates. Each reaction was carried out in 0.2 ml of assay buffer (25 mM Tris, 25 mM Mes, 25 mM acetic acid, and 1 mM CaCl2 adjusted to pH 8.0 with concentrated NaOH). Reactions contained MCA-peptide (final concentration 100 μM, added in 2 μl DMSO) and […] of purified S1P(983)-C. After incubation for 0.5-5 h at 37° C., each reaction was terminated by addition of 1 ml of ice-cold 5 mM sodium EDTA. The liberated 7-amino-4-methyl-coumarin (AMC) was measured with a Perkin-ElmerLS-30 luminescence spectrometer (360 nm excitation, 460 nm emission). A standard curve of fluorescence intensity was generated with different concentrations of AMC (Promega).
Similar substrates have been used to assay furin, prohormone convertases, and other subtilisin-related enzymes (Nakayama, 1997). […] The sequence of this peptide corresponds to the sequence at Site-B of S1P, which is known to be cleaved by S1P in an autocatalytic reaction. Fluorescence rose linearly with time for 5 h. […] This differs from the observations with furin and the prohormone convertases, whose pH optima are generally in the range of 6-7 (Nakayama, 1997).
The indicated fluorogenic peptide-MCA (100 μM) was incubated with 3 μg of purified S1P(983)-C at 37° C. for 5 h. The S1P activity of Ac-VFRSLK-MCA (SEQ ID NO:13, 930 pmol per min/mg protein) was set at 1.0, and the activity of the other substrates was expressed relative to this value. Each value represents the average of duplicate incubations, which varied from each other by <10%.

[1] = target: HSV-tagged human SREBP-2, wild-type (human) (UniProt Q12772)
[2] = test system: PLAP-BP2(513-1141) in SRD-12B cells; assay: Secreted alkaline phosphatase assay in SRD-12B cells transfected with wild-type or mutant S1P cDNAs; type: cell-based, hamster; conditions: Myc-tagged S1P cDNA
SREBP-2 = assay: Immunoblot of cleavage of HSV-tagged SREBP-2 in transfected SRD-12B cells; type: cell-based, hamster; conditions: SRD-12B cells, HSV-tagged SREBP-2
Procedure: On day 0, SRD-12B cells were set up at a density of 6×10^5 cells/60-mm dish in medium B. On day 1, cells were transfected with 4 μg of the indicated plasmid DNA plus 12 μl of LipofectAMINE™ reagent (Life Technologies) according to the manufacturer's instructions with modifications as follows. LipofectAMINE™/DNA complexes were formed in 1 ml of serum-free medium for 15 min at room temperature, and 0.5 ml were added to 1 ml of serum-free medium per dish. […] After incubation at 37 ° C. for 20 h, the cells received N-acetyl-leucinal-leucinal norleucinal (ALLN) at a final concentration of 25 μg/ml. […] After boiling for 5 min, the proteins were subjected to SDS-PAGE and transferred to Hybond-C Extra nitrocellulose filters (Amersham). The filters were incubated with the antibodies described in the figure legends. […] Gels were calibrated with prestained molecular weight markers (New England Biolabs, Beverly, Mass.). Filters were exposed to X-Omat Blue XB-1 film (Kodak, Rochester, N.Y.) with intensifying screens at room temperature for the indicated time.
Cell membranes and nuclear extracts were subjected to electrophoresis and blotted with an antibody against the HSV epitope-tag.
In a more direct test for S1P catalytic activity, the mutant plasmids were transfected into the SRD-12B cells together with pTK-HSV-BP2. Membranes and nuclear extracts were subjected to SDS-PAGE and blotted with an antibody against the HSV-tagged SREBP-2 (FIG. 9B).
The inventors cotransfected cDNAs encoding wild-type S1P or one of the mutants. Cell membrane pellets and nuclear extracts were subjected to SDS-PAGE. and the NH2 -terminus of SREBP-2 was visualized by immunoblotting with anti-HSV (FIG. 16A).

CC(=O)N[C@@H](CCCNC(=N)N)C(=O)N[C@@H](CO)C(=O)N[C@H](C(=O)N[C@@H](CC(C)C)C(=O)Nc1ccc2c(C)cc(=O)oc2c1)C(C)C [Ac-RSVL-MCA, Ac-Arg-Ser-Val-Leu-MCA] (Ac-RSVL-{AMC})
cleavage by SKI-1 culture medium (SKI-1): unable to cleave | Relative Activity (purified S1P(983)-C; 100 μM peptide-MCA, 3 μg S1P(983)-C, 37° C., 5 h, Ac-VFRSLK-MCA set at 1.0): < 0.1 | cleavage of the peptide (purified S1P(983)-C; result in words): did not cleave; also recorded: does not cleave

27-amino acid synthetic peptide: 27-amino acid synthetic peptide corresponding to the luminal loop sequence of human SREBP-2 (GGAHDSDQHPHSGSGRSVLSFESGSGG)
cleavage by SKI-1 culture medium (SKI-1): able to cleave

B1: Myc-S1P(Site-B mutant) (enzyme)
chain: DGGRSEQKLISEEDLNGEQKLISEEDLNGEQKLISEEDLNSSGRLGKKAFEKASCPSCSHLTLKVEFSSTVVEYEYIVAFNGYFTAKARNSFISSALKSSEVDNWRIIPRNNPSSDYPSDFEVIQIKEKQKAGLLTLEDHPNIKRVTPQRKVFAAAAFAESDPIVPCNETRWSQKWQSSRPLRRASLSLGSGFWHATGRHSSRRLLRAIPRQVAQTLQADVLWQMGYTGANVRVAVFDTGLSEKHPHFKNVKERTNWTNERTLDDGLGHGTFVAGVIASMRECQGFAPDAELHIFRVFTNNQVSYTSWFLDAFNYAILKKIDVLNLSIGGPDFMDHPFVDKVWELTANNVIMVSAIGNDGPLYGTLNNPADQMDVIGVGGIDFEDNIARFSSRGMTTWELPGGYGRVKPDIVTYGAGVRGSGVKGGCRALSGTSVASPVVAGAVTLLVSTVQKRELVNPASVKQALIASARRLPGVNMFEQGHGKLDLLRAYQILSSYKPQASLSPSYIDLTECPYMWPYCSQPIYYGGMPTIVNVTILNGMGVTGRIVDKPEWRPYLPQNGDNIEVAFSYSSVLWPWSGYLAISISVTKKAASWEGIAQGHIMITVASPAETEAKNGAEHTSTVKLPIKVKIIPTPPRSKRVLWDQYHNLRYPPGYFPRDNLRMKNDPLDWNGDHVHTNFRDMYQHLRSMGYFVEVLGAPFTCFDATQYGTLLMVDSEEEYFPEEIAKLRRDVDNGLSLVIFSDWYNTSVMRKVKFYDENTRQWWMPDTGGANIPALNELLSVWNMGFSDGLYEGEFALANHDMYYASGCSIAKFPEDGVVITQTFKDQGLEVLKQETAVVENVPILGLYQIPAEGGGRIVLYGDSNCLDDSHRQKDCFWLLDALLQYTSYGVNPPSLSHSGNRQRPPSGAGLAPPERMEGNHLHRYSKVLEAHLGDPKPRPLPACPHLSWAKPQPLNETAPSNLWKHQKLLSIDLDKVVLPNFRSNRPQVRPLSPGESGAWDIPGGIMPGRYNQEVGQTIPVFAFLGAMVALAFFVVQISKAKSRPKRRRPRAKRPQLTQQTHPPRTPSV
cleaved nuclear form of HSV-tagged SREBP-2 on immunoblot (SRD-12B cells) (fold higher levels of expression) [1]: 10

B2: wild-type S1P: hamster Site-1 protease expressed from cDNA (protein, UniProt Q9Z2A8 187-1052, looked up)
Membrane-bound transcription …: RAIPRQVAQTLQADVLWQMGYTGANVRVAVFDTGLSEKHPHFKNVKERTNWTNERTLDDGLGHGTFVAGVIASMRECQGFAPDAELHIFRVFTNNQVSYTSWFLDAFNYAILKKIDVLNLSIGGPDFMDHPFVDKVWELTANNVIMVSAIGNDGPLYGTLNNPADQMDVIGVGGIDFEDNIARFSSRGMTTWELPGGYGRVKPDIVTYGAGVRGSGVKGGCRALSGTSVASPVVAGAVTLLVSTVQKRELVNPASVKQALIASARRLPGVNMFEQGHGKLDLLRAYQILSSYKPQASLSPSYIDLTECPYMWPYCSQPIYYGGMPTIVNVTILNGMGVTGRIVDKPEWRPYLPQNGDNIEVAFSYSSVLWPWSGYLAISISVTKKAASWEGIAQGHIMITVASPAETEAKNGAEHTSTVKLPIKVKIIPTPPRSKRVLWDQYHNLRYPPGYFPRDNLRMKNDPLDWNGDHVHTNFRDMYQHLRSMGYFVEVLGAPFTCFDATQYGTLLMVDSEEEYFPEEIAKLRRDVDNGLSLVIFSDWYNTSVMRKVKFYDENTRQWWMPDTGGANIPALNELLSVWNMGFSDGLYEGEFALANHDMYYASGCSIAKFPEDGVVITQTFKDQGLEVLKQETAVVENVPILGLYQIPAEGGGRIVLYGDSNCLDDSHRQKDCFWLLDALLQYTSYGVTPPSLSHSGNRQRPPSGAGLAPPERMEGNHLHRYSKVLEAHLGDPKPRPLPACPHLSWAKPQPLNETAPSNLWKHQKLLSIDLDKVVLPNFRSNRPQVRPLSPGESGAWDIPGGIMPGRYNQEVGQTIPVFAFLGAMVALAFFVVQISKAKSRPKRRRPRAKRPQLTQQTHPPRTPSV
PLAP activity in the culture medium [2]: increased | cleavage of SREBP-2 by S1P or S1P mutant (SREBP-2): maximal cleavage | cleavage of SREBP-2 by S1P or S1P mutant (SREBP-2; listed as Wild-type S1P): restored cleavage

B3: 5411A: control S1P mutant, serine near catalytic triad mutated to alanine (protein, UniProt Q9Z2A8 187-1052, looked up, variant S411A)
Membrane-bound transcription …: B2 Membrane-bound transcription … with S225A
PLAP activity relative to wild-type levels [2]: 50-70 % of wild-type levels
